According to patent US20220049012A1 (NAVI BIO THERAPEUTICIS, published 2022):
Where a chain is given by its changes, count along the chain named.

B1: NAVICA9S1 (scFv, V domains shown)
VH: AVTLDESEGGLQTPGGALSLVCKASGFTFSSYAMNWVRQAPGKGLEFVAGITNTGSSAGYGAAVKGRATISRDNGQSTVRLQLNNLRAEDTATYFCTKSYGGWCDHACAPDDIDTWGHGTEVIVSS
VL: ALTQPSSVSANPGETVKITCSGGGKNYGWYQQKSPGSAPVTVIYLNDKRPSNIPSRFSGSKSGSTHTLTITGVQAEDEAVYFCGSRDSSPTFGAGTTLTVL
notes: Chicken scFv from phage display, expressed in E. coli; also called anti-CAIX scFv NAVICA9S1; clone NAVICA9S1; not shown: linker; tags from the pComb3X vector (purified on Ni2+ Sepharose, detected with anti-HA)
B2: NAVICA9S2 (scFv, V domains shown)
VH: AVTLDESGGGLQTPRGALSLVCKASGFTFSSFNMFWVRQAPGKGLEYVAAISSDGSRSRYGSAVQGRATISRDNGQSTVRLQLNSLRAEDTGTYYCAKRPYSGCTSNNFCFNAAYIDVWGHGTEVIVSS
VL: ALTQPSSVSANLGETVEITCSGSSGSYGWYQQKSPGSAPVTVIYYNDKRPSDIPSRFSGSKSGSTGTLTITGVQAEDEAVYYCGSADRSGAGIFGAGTTLTVL
notes: Chicken scFv; also called anti-CAIX scFv NAVICA9S2; clone NAVICA9S2; not shown: linker; tags from the pComb3X vector (purified on Ni2+ Sepharose, detected with anti-HA)
B3: NAVICA9L2 (scFv, V domains shown)
VH: AVTLDESGGGLQTPGGGLSLVCKASGFTFSSYAIQWVRQAPGKGLEWVAGISDDGSWTGYGAAVKGRATISRDNGQSTMRLQLNNLRAEDTGIYYCAKGAGTGYCANRSFGCASTIDAWGHGTEVIVSS
VL: B2 VL with S24R, D47V
notes: Chicken scFv; also called anti-CAIX scFv NAVICA9L2; clone NAVICA9L2; not shown: linker; tags from the pComb3X vector (purified on Ni2+ Sepharose, detected with anti-HA)
B4: NAVICA9L3 (scFv, V domains shown)
VH: B2 VH with R15G
VL: B2 VL
notes: Chicken scFv; also called anti-CAIX scFv NAVICA9L3; clone NAVICA9L3; not shown: linker; tags from the pComb3X vector (purified on Ni2+ Sepharose, detected with anti-HA)

Tests used:
[1] = target: recombinant CAIX extra-cellular domain (UniProt Q16790 38-414); experiment: competitive ELISA (Friguet), soluble CAIX ECD against coated CAIX ECD
Description: To determine the binding affinity of the anti-CAIX scFvs, competitive ELISA was performed. The CAIX ECD fragment proteins in 2-fold serial dilution (100-13 μg/ml) were pre-incubated with anti-CAIX scFvs (NAVICA9S1: 0.62 μg/ml, NAVICA9S2: 0.32 μg/ml,
NAVICA9L2: 0.16 μg/ml, NAVICA9L3: 0.32 μg/ml) at 1:1 volume ratio at room temperature for 1 hour. The mixtures were then added into ELISA plate coated with CAIX ECD fragment proteins (0.25 or 0.5 μg/well). After 1 hour incubation, the mouse anti-HA IgG (1:5,000) and HRP-conjugated rabbit anti-mouse IgG (1:10,000) were added as the secondary and third antibodies. Following the incubation and washing, 3,3′,5,5′-Tetramethylbenzidine (TMB) was added for color development, which was stopped by HCl and detected using an ELISA plate reader. The Kd values of scFvs were estimated and expressed by molarity (M) as described by Friguet et al. (J. Immunol. Methods, 77: 305-319, 1985). N/A: not available.

[2] = target: T1, recombinant CAIX fragment 3 (UniProt Q16790 228-414, limits assumed); experiment: binding to recombinant CAIX fragments, epitope mapping
T1 construct: domain: fragment 3(F3); Expressed in E. coli from pET-21a(+) or pET-32a(+); also called F3; CAIX F3

[3] = target: recombinant CAIX fragment 2 (UniProt Q16790 154-353); experiment: as above

Binder	Kd [1]	binding result [2]	binding result [3]
B1	64.3 nM	–	–
B2	11.5 nM	–	–
B3	140 nM	no binding	no binding
B4	9.26 nM	–	–
